Blank lines part the entries; values can stand above or below the binder they belong to.
Columns and labels:
[1] = biological target: T1, mouse FcγRIII (mouse, UniProt P08508 31-215); assay: SPR (Biacore T200); KD of H237-MB630/MRAL-k0 / KD of variant
T1 construct: Extracellular domain with C-terminal His tag; also called mFcγRIII; mFcgRIII
T1 chain: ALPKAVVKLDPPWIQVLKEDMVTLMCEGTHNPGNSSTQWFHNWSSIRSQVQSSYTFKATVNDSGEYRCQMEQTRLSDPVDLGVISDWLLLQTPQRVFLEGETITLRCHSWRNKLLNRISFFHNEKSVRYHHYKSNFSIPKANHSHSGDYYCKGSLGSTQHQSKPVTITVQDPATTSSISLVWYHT

[2] = biological target: T2, mouse FcγRII (mouse, UniProt P08101 30-210); assay: as above
T2 construct: Extracellular domain with C-terminal His tag; also called mFcγRII; mFcgRII
T2 sequence: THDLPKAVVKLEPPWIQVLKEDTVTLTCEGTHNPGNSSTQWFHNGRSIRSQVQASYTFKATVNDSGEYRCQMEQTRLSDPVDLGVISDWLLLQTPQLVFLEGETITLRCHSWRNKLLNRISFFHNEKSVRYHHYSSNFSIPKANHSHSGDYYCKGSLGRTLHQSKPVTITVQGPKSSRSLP

[3] = biological target: T1, mouse FcγRIII; assay: SPR (Biacore T200); KD of H237-mIgG1/MRAL-k0 / KD of variant
[4] = biological target: T2, mouse FcγRII; assay: as above

B3: MB785 (antibody, mouse IgG1, kappa)
heavy: QVQLQESGPGLVKPSETLSLTCAVSGHSISHDHAWSWVRQPPGEGLEWIGFISYSGITNYNPSLQGRVTISRDNSKNTLYLQMNSLRAEDTAVYYCARSLARTTAMDYWGEGTLVTVSSAKTTPPSVYPLAPGSAAQTNSMVTLGCLVKGYFPEPVTVTWNSGSLSSGVHTFPAVLQSDLYTLSSSVTVPSSTWPSETVTCNVAHPASSTKVDKKIVPRDCGCKPCICEPNEVELVFIFPPKPKDVLTITLTPKVTCVVVDISKDDPEVQFSWFVDDVEVHTAQTQPREEQFNSTFRSVSELPIMHQDWLNGKEFKCRVDSDAFPAPIEKTISKTKGRPKAPQVYTIPPPKEQMAKDKVSLTCMITDFFPEDITVEWQWNGQPAENYKNTQPIMDTDGSYFVYSKLNVQKSNWEAGNTFTCSVLHEGLHNHHTEKSLSHSPGK
light: not shown
notes: CH name; VH H237 + CH, L chain MRAL-k0; copies: 2 + 2
Relative mFcγRIII-binding activity (MB630 = 1) [1]: 2.85 fold
Relative mFcγRII-binding activity (MB630 = 1) [2]: 2.29 fold
relative mFcγRIII-binding activity (mIgG1 = 1) [3]: 0.49 fold
relative mFcγRII-binding activity (mIgG1 = 1) [4]: 24.9 fold

B5: MB779 (antibody, mouse IgG1, kappa)
heavy: QVQLQESGPGLVKPSETLSLTCAVSGHSISHDHAWSWVRQPPGEGLEWIGFISYSGITNYNPSLQGRVTISRDNSKNTLYLQMNSLRAEDTAVYYCARSLARTTAMDYWGEGTLVTVSSAKTTPPSVYPLAPGSAAQTNSMVTLGCLVKGYFPEPVTVTWNSGSLSSGVHTFPAVLQSDLYTLSSSVTVPSSTWPSETVTCNVAHPASSTKVDKKIVPRDCGCKPCICEPNEVELVFIFPPKPKDVLTITLTPKVTCVVVDISKDDPEVQFSWFVDDVEVHTAQTQPREEQFNSTFRSVSELPIMHQDWLNGKEFKCRVNSAAFPAPIEKTIWKTKGRPKAPQVYTIPPPKEQMAKDKVSLTCMITDFFPEDITVEWQWNGQPAENYKNTQPIMDTDGSYFVYSKLNVQKSNWEAGNTFTCSVLHEGLHNHHTEKSLSHSPGK
light: not shown
notes: as for B3
Relative mFcγRIII-binding activity (MB630 = 1) [1]: 1.02 fold
Relative mFcγRII-binding activity (MB630 = 1) [2]: 0.92 fold
relative mFcγRIII-binding activity (mIgG1 = 1) [3]: 0.18 fold
relative mFcγRII-binding activity (mIgG1 = 1) [4]: 10 fold

B6: MB784 (antibody, mouse IgG1, kappa)
heavy: QVQLQESGPGLVKPSETLSLTCAVSGHSISHDHAWSWVRQPPGEGLEWIGFISYSGITNYNPSLQGRVTISRDNSKNTLYLQMNSLRAEDTAVYYCARSLARTTAMDYWGEGTLVTVSSAKTTPPSVYPLAPGSAAQTNSMVTLGCLVKGYFPEPVTVTWNSGSLSSGVHTFPAVLQSDLYTLSSSVTVPSSTWPSETVTCNVAHPASSTKVDKKIVPRDCGCKPCICEPNEVELVFIFPPKPKDVLTITLTPKVTCVVVDISKDDPEVQFSWFVDDVEVHTAQTQPREELFNSTFRSVSELPIMHQDWLNGKEFKCRVNSAAFPAPIERTISKTKGRPKAPQVYTIPPPKEQMAKDKVSLTCMITDFFPEDITVEWQWNGQPAENYKNTQPIMDTDGSYFVYSKLNVQKSNWEAGNTFTCSVLHEGLHNHHTEKSLSHSPGK
light: not shown
notes: as for B3
Relative mFcγRIII-binding activity (MB630 = 1) [1]: 2.24 fold
Relative mFcγRII-binding activity (MB630 = 1) [2]: 1.36 fold
relative mFcγRIII-binding activity (mIgG1 = 1) [3]: 0.38 fold
relative mFcγRII-binding activity (mIgG1 = 1) [4]: 14.7 fold

B7: MB780 (antibody, mouse IgG1, kappa)
heavy: QVQLQESGPGLVKPSETLSLTCAVSGHSISHDHAWSWVRQPPGEGLEWIGFISYSGITNYNPSLQGRVTISRDNSKNTLYLQMNSLRAEDTAVYYCARSLARTTAMDYWGEGTLVTVSSAKTTPPSVYPLAPGSAAQTNSMVTLGCLVKGYFPEPVTVTWNSGSLSSGVHTFPAVLQSDLYTLSSSVTVPSSTWPSETVTCNVAHPASSTKVDKKIVPRDCGCKPCICEPNEVELVFIFPPKPKDVLTITLTPKVTCVVVDISKDDPEVQFSWFVDDVEVHTAQTQPREEQFNSTFRSVSELPIMHQDWLNGKEFKCRVNSAGFPAPIEKTISKTKGRPKAPQVYTIPPPKEQMAKDKVSLTCMITDFFPEDITVEWQWNGQPAENYKNTQPIMDTDGSYFVYSKLNVQKSNWEAGNTFTCSVLHEGLHNHHTEKSLSHSPGK
light: not shown
notes: as for B3
Relative mFcγRIII-binding activity (MB630 = 1) [1]: 2.29 fold
Relative mFcγRII-binding activity (MB630 = 1) [2]: 1.86 fold
relative mFcγRIII-binding activity (mIgG1 = 1) [3]: 0.39 fold
relative mFcγRII-binding activity (mIgG1 = 1) [4]: 20.2 fold

B9: MB782 (antibody, mouse IgG1, kappa)
heavy: QVQLQESGPGLVKPSETLSLTCAVSGHSISHDHAWSWVRQPPGEGLEWIGFISYSGITNYNPSLQGRVTISRDNSKNTLYLQMNSLRAEDTAVYYCARSLARTTAMDYWGEGTLVTVSSAKTTPPSVYPLAPGSAAQTNSMVTLGCLVKGYFPEPVTVTWNSGSLSSGVHTFPAVLQSDLYTLSSSVTVPSSTWPSETVTCNVAHPASSTKVDKKIVPRDCGCKPCICEPNEVELVFIFPPKPKDVLTITLTPKVTCVVVDISKDDPEVQFSWFVDDVEVHTAQTQPREELFNSTFRSVSELPIMHQDWLNGKEFKCRVDSAAFPAPIEKTISKTKGRPKAPQVYTIPPPKEQMAKDKVSLTCMITDFFPEDITVEWQWNGQPAENYKNTQPIMDTDGSYFVYSKLNVQKSNWEAGNTFTCSVLHEGLHNHHTEKSLSHSPGK
light: not shown
notes: as for B3
Relative mFcγRIII-binding activity (MB630 = 1) [1]: 2.89 fold
Relative mFcγRII-binding activity (MB630 = 1) [2]: 1.96 fold
relative mFcγRIII-binding activity (mIgG1 = 1) [3]: 0.5 fold
relative mFcγRII-binding activity (mIgG1 = 1) [4]: 21.3 fold

The next lines start with the values.

Relative mFcγRIII-binding activity (MB630 = 1) [1]: 0.65 fold
Relative mFcγRII-binding activity (MB630 = 1) [2]: 0.57 fold
relative mFcγRIII-binding activity (mIgG1 = 1) [3]: 0.11 fold
relative mFcγRII-binding activity (mIgG1 = 1) [4]: 6.1 fold
B1: MB778 (antibody, mouse IgG1, kappa)
heavy: QVQLQESGPGLVKPSETLSLTCAVSGHSISHDHAWSWVRQPPGEGLEWIGFISYSGITNYNPSLQGRVTISRDNSKNTLYLQMNSLRAEDTAVYYCARSLARTTAMDYWGEGTLVTVSSAKTTPPSVYPLAPGSAAQTNSMVTLGCLVKGYFPEPVTVTWNSGSLSSGVHTFPAVLQSDLYTLSSSVTVPSSTWPSETVTCNVAHPASSTKVDKKIVPRDCGCKPCICEPNEVELVFIFPPKPKDVLTITLTPKVTCVVVDISKDDPEVQFSWFVDDVEVHTAQTQPREEQFNSTFRSVSELPIMHQDWLNGKEFKCRVNSAAFPAPIEKTIKKTKGRPKAPQVYTIPPPKEQMAKDKVSLTCMITDFFPEDITVEWQWNGQPAENYKNTQPIMDTDGSYFVYSKLNVQKSNWEAGNTFTCSVLHEGLHNHHTEKSLSHSPGK
light: not shown
notes: as for B3

Relative mFcγRIII-binding activity (MB630 = 1) [1]: 0.77 fold
Relative mFcγRII-binding activity (MB630 = 1) [2]: 0.48 fold
relative mFcγRIII-binding activity (mIgG1 = 1) [3]: 0.13 fold
relative mFcγRII-binding activity (mIgG1 = 1) [4]: 5.2 fold
B2: MB781 (antibody, mouse IgG1, kappa)
heavy: QVQLQESGPGLVKPSETLSLTCAVSGHSISHDHAWSWVRQPPGEGLEWIGFISYSGITNYNPSLQGRVTISRDNSKNTLYLQMNSLRAEDTAVYYCARSLARTTAMDYWGEGTLVTVSSAKTTPPSVYPLAPGSAAQTNSMVTLGCLVKGYFPEPVTVTWNSGSLSSGVHTFPAVLQSDLYTLSSSVTVPSSTWPSETVTCNVAHPASSTKVDKKIVPRDCGCKPCICEPNEVELVFIFPPKPKDVLTITLTPKVTCVVVDISKDDPEVQFSWFVDDVEVHTAQTQPREEQFNSTFRSVSELPIMHQDWLNGKEFKCRVNSAAFPKPIEKTISKTKGRPKAPQVYTIPPPKEQMAKDKVSLTCMITDFFPEDITVEWQWNGQPAENYKNTQPIMDTDGSYFVYSKLNVQKSNWEAGNTFTCSVLHEGLHNHHTEKSLSHSPGK
light: not shown
notes: as for B3

Relative mFcγRIII-binding activity (MB630 = 1) [1]: 3.33 fold
Relative mFcγRII-binding activity (MB630 = 1) [2]: 2.5 fold
relative mFcγRIII-binding activity (mIgG1 = 1) [3]: 0.57 fold
relative mFcγRII-binding activity (mIgG1 = 1) [4]: 27.2 fold
B4: MB786 (antibody, mouse IgG1, kappa)
heavy: QVQLQESGPGLVKPSETLSLTCAVSGHSISHDHAWSWVRQPPGEGLEWIGFISYSGITNYNPSLQGRVTISRDNSKNTLYLQMNSLRAEDTAVYYCARSLARTTAMDYWGEGTLVTVSSAKTTPPSVYPLAPGSAAQTNSMVTLGCLVKGYFPEPVTVTWNSGSLSSGVHTFPAVLQSDLYTLSSSVTVPSSTWPSETVTCNVAHPASSTKVDKKIVPRDCGCKPCICEPNEVELVFIFPPKPKDVLTITLTPKVTCVVVDISKDDPEVQFSWFVDDVEVHTAQTQPREEQFNSTFRSVSELPIMHQDWLNGKEFKCRVNSDAFPAPIERTISKTKGRPKAPQVYTIPPPKEQMAKDKVSLTCMITDFFPEDITVEWQWNGQPAENYKNTQPIMDTDGSYFVYSKLNVQKSNWEAGNTFTCSVLHEGLHNHHTEKSLSHSPGK
light: not shown
notes: as for B3

Relative mFcγRIII-binding activity (MB630 = 1) [1]: 4.34 fold
Relative mFcγRII-binding activity (MB630 = 1) [2]: 2.82 fold
relative mFcγRIII-binding activity (mIgG1 = 1) [3]: 0.75 fold
relative mFcγRII-binding activity (mIgG1 = 1) [4]: 30.6 fold
B8: MB783 (antibody, mouse IgG1, kappa)
heavy: QVQLQESGPGLVKPSETLSLTCAVSGHSISHDHAWSWVRQPPGEGLEWIGFISYSGITNYNPSLQGRVTISRDNSKNTLYLQMNSLRAEDTAVYYCARSLARTTAMDYWGEGTLVTVSSAKTTPPSVYPLAPGSAAQTNSMVTLGCLVKGYFPEPVTVTWNSGSLSSGVHTFPAVLQSDLYTLSSSVTVPSSTWPSETVTCNVAHPASSTKVDKKIVPRDCGCKPCICEPNEVELVFIFPPKPKDVLTITLTPKVTCVVVDISKDDPEVQFSWFVDDVEVHTAQTQPREELFNSTFRSVSELPIMHQDWLNGKEFKCRVNSDAFPAPIEKTISKTKGRPKAPQVYTIPPPKEQMAKDKVSLTCMITDFFPEDITVEWQWNGQPAENYKNTQPIMDTDGSYFVYSKLNVQKSNWEAGNTFTCSVLHEGLHNHHTEKSLSHSPGK
light: not shown
notes: as for B3

From US20150203577A1 (Chugai, published 2015)
